Reference: doi:10.1101/2020.11.11.367672 (bioRxiv, 2020)

T1: Dicer 256-595 domain (human, UniProt Q9UPY3 256-595)
T1 sequence: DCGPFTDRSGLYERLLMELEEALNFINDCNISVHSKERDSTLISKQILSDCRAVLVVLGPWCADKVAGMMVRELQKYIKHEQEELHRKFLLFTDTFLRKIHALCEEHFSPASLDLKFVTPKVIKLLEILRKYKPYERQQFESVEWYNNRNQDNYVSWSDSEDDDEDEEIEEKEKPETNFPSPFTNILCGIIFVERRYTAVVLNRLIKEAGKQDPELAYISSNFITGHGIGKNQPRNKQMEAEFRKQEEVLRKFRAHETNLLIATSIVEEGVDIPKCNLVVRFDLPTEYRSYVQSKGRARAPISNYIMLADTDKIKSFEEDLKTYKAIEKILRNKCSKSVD

B1: His6-tagged TRBP dsRBD3 (262-366) (domain or fragment)
chain: GCTWDSLRNSVGEKILSLRSCSLGSLGALGPACCRVLSELSEEQAFHVSYLDIEELSLSGLCQCLVELSTQPATVCHGSATTREAARGEAARRALQYLKIMAGSK
B2: His6-tagged TRBP protein (purified recombinant, GST pull-down) (natural protein)
chain: MSEEEQGSGTTTGCGLPSIEQMLAANPGKTPISLLQEYGTRIGKTPVYDLLKAEGQAHQPNFTFRVTVGDTSCTGQGPSKKAAKHKAAEVALKHLKGGSMLEPALEDSSSFSPLDSSLPEDIPVFTAAAAATPVPSVVLTRSPPMELQPPVSPQQSECNPVGALQELVVQKGWRLPEYTVTQESGPAHRKEFTMTCRVERFIEIGSGTSKKLAKRNAAAKMLLRVHTVPLDARDGNEVEPDDDHFSIGVGSRLDGLRNRGPGCTWDSLRNSVGEKILSLRSCSLGSLGALGPACCRVLSELSEEQAFHVSYLDIEELSLSGLCQCLVELSTQPATVCHGSATTREAARGEAARRALQYLKIMAGSK

Legend:
Assay in all cases: pull-down
[1] = biological target: T1, Dicer 256-595 domain
[2] = biological target: RPAP3 TPR1 domain (residues 133-255) (human, UniProt Q9H6T3 133-255)
[3] = biological target: GST (glutathione-S-transferase)-tagged RPAP3 (human, UniProt Q9H6T3 1-665)
Chain of GST (glutathione-S-transferase)-tagged RPAP3 (Q9H6T3 whole entry): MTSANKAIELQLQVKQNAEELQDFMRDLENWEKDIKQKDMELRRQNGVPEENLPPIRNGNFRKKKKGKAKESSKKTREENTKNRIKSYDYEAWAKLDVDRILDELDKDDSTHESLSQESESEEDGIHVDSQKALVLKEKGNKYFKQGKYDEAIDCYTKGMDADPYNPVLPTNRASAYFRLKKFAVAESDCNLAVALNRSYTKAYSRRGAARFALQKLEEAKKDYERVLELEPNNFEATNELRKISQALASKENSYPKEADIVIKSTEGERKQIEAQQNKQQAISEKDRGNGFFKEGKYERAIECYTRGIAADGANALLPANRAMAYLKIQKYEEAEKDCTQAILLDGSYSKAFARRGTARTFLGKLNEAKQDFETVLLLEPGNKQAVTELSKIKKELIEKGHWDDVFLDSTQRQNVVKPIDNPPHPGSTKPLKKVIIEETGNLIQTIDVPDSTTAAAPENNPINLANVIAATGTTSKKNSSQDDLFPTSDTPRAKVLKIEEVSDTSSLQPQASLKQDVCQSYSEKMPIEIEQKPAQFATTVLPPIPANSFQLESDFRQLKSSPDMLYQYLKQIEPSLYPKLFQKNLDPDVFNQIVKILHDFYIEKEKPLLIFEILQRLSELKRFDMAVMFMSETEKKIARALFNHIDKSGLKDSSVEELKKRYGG

Chain of RPAP3 TPR1 domain (residues 133-255) (Q9H6T3 133-255): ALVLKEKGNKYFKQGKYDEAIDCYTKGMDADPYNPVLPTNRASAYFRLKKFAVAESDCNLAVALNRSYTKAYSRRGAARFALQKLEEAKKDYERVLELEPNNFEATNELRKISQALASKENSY

Row | Binder | binding result [1] | binding result [2] | binding result [3]
1 | B1 | binds | binds | –
2 | B2 | – | – | binds
